Test results published in patent publication US20160272693A1 (ZEALAND PHARMA A S, published 2016).
Like-named read-outs stand apart in the source and are kept apart here. *1 amine or outer side, *2 acyl side, *3 side chain or, on linkers, in order; H or OH if unused. Bridges are numbered along the chain shown (N, C = ends). [ ]: non-standard residue; d: D form. The star is where a group is joined. C20 diacid = O=C(O)CCCCCCCCCCCCCCCCCCC(=O)*; γGlu = O=C(O)[C@H](CCC(=O)[*:2])N[*:1]; Hyp = O=C(O)[C@@H]1C[C@@H](O)CN1; NMeI = CC[C@H](C)[C@H](NC)C(=O)O; Aad = N[C@@H](CCCC(=O)O)C(=O)O; Sar = CNCC(=O)O

Columns and labels:
[1] = biological target: T1, human amylin receptor 3 (hAMYR3), hCTR2 co-expressed with human receptor activity modifying protein 3 (hRAMP3) (human, UniProt P30988 25-474; O60896 24-148); experiment: cell-based or functional assay
T1 sequence (looked up) 1: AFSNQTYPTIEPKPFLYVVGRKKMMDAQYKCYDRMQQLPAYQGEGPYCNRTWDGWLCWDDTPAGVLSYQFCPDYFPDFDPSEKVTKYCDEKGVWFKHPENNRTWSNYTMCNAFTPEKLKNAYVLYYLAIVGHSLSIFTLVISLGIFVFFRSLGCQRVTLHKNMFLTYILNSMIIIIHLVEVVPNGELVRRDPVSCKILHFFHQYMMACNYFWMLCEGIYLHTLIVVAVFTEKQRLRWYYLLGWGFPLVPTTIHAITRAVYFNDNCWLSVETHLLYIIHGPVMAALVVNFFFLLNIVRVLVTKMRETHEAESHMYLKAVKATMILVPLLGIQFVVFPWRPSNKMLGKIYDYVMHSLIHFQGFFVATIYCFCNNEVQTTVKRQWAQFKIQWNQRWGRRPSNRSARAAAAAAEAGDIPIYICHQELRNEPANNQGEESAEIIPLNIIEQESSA
T1 sequence (looked up) 2: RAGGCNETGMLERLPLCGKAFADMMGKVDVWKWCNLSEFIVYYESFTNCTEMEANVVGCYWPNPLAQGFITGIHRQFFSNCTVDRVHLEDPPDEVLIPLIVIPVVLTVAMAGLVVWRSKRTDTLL

[2] = biological target: T1, human amylin receptor 3 (hAMYR3), hCTR2 …; experiment: cell-based or functional assay; remark: listed apart in the source

Binder | hAMYR3 EC50 (nM); cAMP induction [1] [nM] | hAMYR3 EC50 (nM); cAMP induction [2] [nM]
{C20 diacid-γGlu}-RCQTATCATERLAHFLQRSSF[Sar]A[NMeI]LSSTEVGSNT[Hyp]-NH2 (disulfide 2-7; SMILES CC[C@H](C)[C@@H](C(=O)N[C@@H](CC(C)C)C(=O)N[C@@H](CO)C(=O)N[C@@H](CO)C(=O)N[C@H](C(=O)N[C@@H](CCC(=O)O)C(=O)N[C@H](C(=O)NCC(=O)N[C@@H](CO)C(=O)N[C@@H](CC(N)=O)C(=O)N[C@H](C(=O)N1C[C@H](O)C[C@H]1C(N)=O)[C@@H](C)O)C(C)C)[C@@H](C)O)N(C)C(=O)[C@H](C)NC(=O)CN(C)C(=O)[C@H](Cc1ccccc1)NC(=O)[C@H](CO)NC(=O)[C@H](CO)NC(=O)[C@H](CCCNC(=N)N)NC(=O)[C@H](CCC(N)=O)NC(=O)[C@H](CC(C)C)NC(=O)[C@H](Cc1ccccc1)NC(=O)[C@H](Cc1c[nH]cn1)NC(=O)[C@H](C)NC(=O)[C@H](CC(C)C)NC(=O)[C@H](CCCNC(=N)N)NC(=O)[C@H](CCC(=O)O)NC(=O)[C@@H](NC(=O)[C@H](C)NC(=O)[C@@H]1CSSC[C@H](NC(=O)[C@H](CCCNC(=N)N)NC(=O)CC[C@H](NC(=O)CCCCCCCCCCCCCCCCCCC(=O)O)C(=O)O)C(=O)N[C@@H](CCC(N)=O)C(=O)N[C@@H]([C@@H](C)O)C(=O)N[C@@H](C)C(=O)N[C@@H]([C@@H](C)O)C(=O)N1)[C@@H](C)O) [[19CD]-isoGlu-R-C( )-QTAT-C( )-ATERLAHFLQRSSF-Gly(Me)-A-Ile(Me)-LSSTEVGSNT-Hyp-NH2 (Compd. 57)] | 0.11 | 0.11
{C20 diacid-γGlu}-RCNTATCATQRLAEFLHHSSNNFGPILPPTNVGSNTP-NH2 (disulfide 2-7; SMILES CC[C@H](C)[C@H](NC(=O)[C@@H]1CCCN1C(=O)CNC(=O)[C@H](Cc1ccccc1)NC(=O)[C@H](CC(N)=O)NC(=O)[C@H](CC(N)=O)NC(=O)[C@H](CO)NC(=O)[C@H](CO)NC(=O)[C@H](Cc1c[nH]cn1)NC(=O)[C@H](Cc1c[nH]cn1)NC(=O)[C@H](CC(C)C)NC(=O)[C@H](Cc1ccccc1)NC(=O)[C@H](CCC(=O)O)NC(=O)[C@H](C)NC(=O)[C@H](CC(C)C)NC(=O)[C@H](CCCNC(=N)N)NC(=O)[C@H](CCC(N)=O)NC(=O)[C@@H](NC(=O)[C@H](C)NC(=O)[C@@H]1CSSC[C@H](NC(=O)[C@H](CCCNC(=N)N)NC(=O)CC[C@H](NC(=O)CCCCCCCCCCCCCCCCCCC(=O)O)C(=O)O)C(=O)N[C@@H](CC(N)=O)C(=O)N[C@@H]([C@@H](C)O)C(=O)N[C@@H](C)C(=O)N[C@@H]([C@@H](C)O)C(=O)N1)[C@@H](C)O)C(=O)N[C@@H](CC(C)C)C(=O)N1CCC[C@H]1C(=O)N1CCC[C@H]1C(=O)N[C@H](C(=O)N[C@@H](CC(N)=O)C(=O)N[C@H](C(=O)NCC(=O)N[C@@H](CO)C(=O)N[C@@H](CC(N)=O)C(=O)N[C@H](C(=O)N1CCC[C@H]1C(N)=O)[C@@H](C)O)C(C)C)[C@@H](C)O) | 0.15 | 0.15
{C20 diacid}-[γGlu]RCQTATCATDRLA[Aad]FLQRSSF[Sar]A[NMeI]LSSTEVGSNT[Hyp]-NH2 (disulfide 3-8; SMILES CC[C@H](C)[C@@H](C(=O)N[C@@H](CC(C)C)C(=O)N[C@@H](CO)C(=O)N[C@@H](CO)C(=O)N[C@H](C(=O)N[C@@H](CCC(=O)O)C(=O)N[C@H](C(=O)NCC(=O)N[C@@H](CO)C(=O)N[C@@H](CC(N)=O)C(=O)N[C@H](C(=O)N1C[C@H](O)C[C@H]1C(N)=O)[C@@H](C)O)C(C)C)[C@@H](C)O)N(C)C(=O)[C@H](C)NC(=O)CN(C)C(=O)[C@H](Cc1ccccc1)NC(=O)[C@H](CO)NC(=O)[C@H](CO)NC(=O)[C@H](CCCNC(=N)N)NC(=O)[C@H](CCC(N)=O)NC(=O)[C@H](CC(C)C)NC(=O)[C@H](Cc1ccccc1)NC(=O)[C@H](CCCC(=O)O)NC(=O)[C@H](C)NC(=O)[C@H](CC(C)C)NC(=O)[C@H](CCCNC(=N)N)NC(=O)[C@H](CC(=O)O)NC(=O)[C@@H](NC(=O)[C@H](C)NC(=O)[C@@H]1CSSC[C@H](NC(=O)[C@H](CCCNC(=N)N)NC(=O)CC[C@H](NC(=O)CCCCCCCCCCCCCCCCCCC(=O)O)C(=O)O)C(=O)N[C@@H](CCC(N)=O)C(=O)N[C@@H]([C@@H](C)O)C(=O)N[C@@H](C)C(=O)N[C@@H]([C@@H](C)O)C(=O)N1)[C@@H](C)O) [[19CD]-isoGlu-R-C( )-QTAT-C( )-ATDRLA-Aad-FLQRSSF-Gly(Me)-A-Ile(Me)-LSSTEVGSNT-Hyp-NH2 (Compd. 89)] | 0.2 | 0.2
